Here are results for 22 sequences from the DeepSol protein solubility set.

A short description of this data set: soluble on expression in E. coli; label from the status in PepcDB or PDB records.
For “MSLLTLLRPATVQDCKDIFKVHLHSVQYTCILSYNEHALKVWEGLLNTESYLPTISDPDKALWVAEYKGNIQGFFQIDCQEAQLDALYVHPLFHNLGLGTALLHQAETIAHKSGLSFLKLYASLNSVPFYLLNRYESLGSAVLQLDPSIKIKCELMRKHL”, the “soluble on expression in E. coli” value is reported as “not soluble”.
The result for “MGALAELAGDEKNGEGSRTFVFTNEGHTLGNALKTIIARYPEVDFCGYTIPHPTEQKLHFRIQSRRDRAIDILKRGLEDLEGLCDHTIVTFEKEMAEFNAMKVENLEHHHHHH” reads “not soluble”; that for “MHKYRLVAKKGEGTFSEVLKAQCIKNGKYVAIKCMKNHFDSLDQVNNLREIQALRRLSPHANIIKLLEVLYDQPTGRLALVFELMDMNIYELIRGRRHYVAEERIKNYMYQLMKSMDHMHRNGIFHRDIKPENILIMDDCLKLADFGSCRGIYSKQPYTEYISTRWYRAPECLLTDGYYNYKMDMWGVGCVFFEIVSLFPLFPGTNELDQITKIHNILGTPPPDLLAKMKKRSAHMDFNFPPKEGSGVAKLIPHVNPECVDLIVKLLMYNPDERLSARQALRHPYFRDLREAEKRQKALLAPDVSNHFTAMEADKARQQQTVSSTGSDHEHPTSAGGDGGAGTGAVGTHDGSAAAAAAAAALPSISGARGHAGPEGGHDNDMG”, “not soluble”.
The result for “MPRRRGSSSSSSAAGGSGGGGGFGFSSLRRELHLHNFFRTSSPSASSTSRTPPAALPPRTSAVTIPGSNHKLTSSASSYHPPRELTVSTFSAGSATAADGLGGAHLTPSLSSSVHARRESFLYRASDDLREASSLRPVSRASSIASNEHGYVILYIFL” reads “not soluble”.
The result for “MSLKITDVDVWVVNLPLVNPFTSSFETKTGETRTVVRVRTDSGVEGWGETMWGAPVAAIVRRMAPDLIGTSPFALEAFHRKQHMVPFFYGYLGYAAIAAVDVACWDAMGKATGQSVTDLLGGAVRDEVPITALITRADAPGATPADLPKAMAEHAVRVVEEGGFDAVKLKGTTDCAGDVAILRAVREALPGVNLRVDPNAAWSVPDSVRAGIALEELDLEYLEDPCVGIEGMAQVKAKVRIPLCTNMCVVRFEDFAPAMRLNAVDVIHGDVYKWGGIAATKALAAHCETFGLGMNLHSGGELGIATAAHLAVVSSTPVLSRAIDSMYYLHADDIIEPLHLENGRLRVPSGPGLGVSVDEDKLRHYAGVNERDGDLTGEGHHHHHH” reads “soluble”; that for “MAHHHHHHMSYYDKSDKIGYDDTDKELNEELEEMLARTPPHIQRHLQHRIHDGILQRMKEDTARRCWEFIKKYETCVNSVKPYDLTDCRPHRDALNDCAHEVNREQIYQKYRMMYLRGELLRLHESRLGQKMETMKVRAPDSIRGWKPDYAPKYAEMMSDIGLNLGPEAADERKLS”, “not soluble”; that for “MAFALWYSLQERAPVVERSLKVPLQVVGLGEGRRALGLPREVLLRLRGPAPLLEGRALPVSAYLDLSGAEGEVVREVRVAAPQGVEVLEVVPARVGVVVEVEAQRQIPVEVLAQGAWVLTDPAFVEAVGPESQVEAAVSAVGLDLGDEVVLFPFGPEGPLEGVELRPNRVRVVERREALFLKEVPLSLKPPPGRRLLDYAPKTVRLVGPREALEGLAGVAATLQEALGPGEVEVAVAPDLPPGVQTLGPVRVRVALE”, “soluble”.
Regarding “MKRLDKKEALDLLHHASLTELGEMAYKRKLELHPEKITTFVVDRNINYTNVCCIDCSFCAFYRHHKEDDAYILSFEEIGKKIEELEAIGGTQILFQGGVHPKLKIEWYEELVSWIKEHYPNITVHGFSAVEIAYIAKASKISITEVLKRLQAKGLFSIPGAGAEVLSDRVRDIIAPNKCDTATWLEVHRQAHKIGMKSTATMMFGTVENDEEIIDHFEHLRKLQDETGGFRAFILWSFQSDNTALIQKHPEIMKQSSNKYLRLLALVRLYLDNFKNLQSSWVTQGSLIGQLALKFGANDLGSTMMEENVVSAAGASYRMNQDEMIRLIRSLGENPAKRNTAYEILERFLEHHHHHH”, the “soluble on expression in E. coli” value is reported as “not soluble”.
Then “MSLKKFYHLVVRILSKMITPQVIDKPHIVFMMTFPEDIKPIIKALNNSSYQKTVLTTPKQAPYLSELSDDVDVIEMTNRTLVKQIKALKSAQMIIIDNYYLLLGGYNKTSNQHIVQTWHASGALKNFGLTDHQVDVSDKAMVQQYRKVYQATDFYLVGCEQMSQCFKQSLGATEEQMLYFGLPRINKYYTADRATVKAELKDKYGITNKLVLYVPTYREDKADNRAIDKAYFEKCLPGYTLINKLHPSIEDSDIDDVSSIDTSTLMLMSDIIISDYSSLPIEASLLDIPTIFYVYDEGTYDQVRGLNQFYKAIPDSYKVYTEEDLIMTIQEKEHLLSPLFKDWHKYNTDKSLHQLTEYIDKMVTKEGGSHHHHHH”, with “soluble”; and “MSSSSGNQNSKEHKVAVTHDLGKTNVPEHPKRVVVLELGFIDTLLDLGITPVGVADDNKAKQLINKDVLKKIDGYTSVGTRSQPSMEKIASLKPDLIIADTTRHKKVYDQLKKIAPTIALNNLNADYQDTIDASLTIAKAVGKEKEMEKKLTAHEEKLSETKQKISANSQSVLLIGNTNDTIMARDENFFTSRLLTQVGYRYAISTSGNSDSSNGGDSVNMKMTLEQLLKTDPDVIILMTGKTDDLDADGKRPIEKNVLWKKLKAVKNGHVYHVDRAVWSLRRSVDGANAILDELQKEMPAAKKLEHHHHHH”, with “not soluble”; and “MNTQKPFENHLKSVDDLKTTYEEYRAGFIAFALEKNKRSTPYIERARALKVAASVAKTPKDLLYLEDIQDALLYASGISDKAKKFLTEDDKKESINNLIENFLEPAGEEFIDELIFRYLLFQGDSLGGTMRNIAGALAQQKLTRAIISALDIANIPYKWLDSRDKKYTNWMDKPEDDYELETFAKGISWTINGKHRTLMYNITVSLVKKNVDICLFNCEPEIYTPQKVHQQPEKYLLLGELKGGIDPAGADEHWKTANTALTRIRNKFSEKGLSPKTIFIGAAIEHSMAEEIWDQLQSGSLTNSANLTKTEQVGSLCRWIINI”, with “soluble”.
“MPERLQVYKCEVCGNIVEVLNGGIGELVCCNQDMKLMSENTVDAAKEKHVPVIEKIDGGYKVKVGAVAHPMEEKHYIQWIELLADDKCYTQFLKPGQAPEAVFLIEAAKVVAREYCNIHGHWKAEN”: the “soluble on expression in E. coli” value was “soluble”.
With “MTATHDTIRLAEIAAKAAAEKLATNIAVIDVSDVMAISEVFVLASADNERQVRSIVEEIEDMLTAEGEEPKRREGNRENRWVLLDYGMLVIHVQRNTERDFYGLDRLYQDCPLIEVEGIDTMARPEEWAQDVDVRTVESLDEIPLAGEEPADEEF”, the “soluble on expression in E. coli” value is “not soluble”.
The result for “MQNIFDPLIIRGKSLIPIVQGGMGVGVSASGLSSAVARENGIGTIASVDLRHLHEDLLAESQINPSEEKYTSLNCTALDREIQKAKSASEGKGLIAVNVMKAVKDHAAYVRQACESGADAVVMGAGLPLDLPEMTEGYHKDVALLPILSESRGINIVLKRWMKKGILPDAIVVEHPAHAAGHLGASTVEGVNDAKFDFKRVIEETFEVFKNLGLEGEKIPLILAGGMANFEKVKTALKNWGASAVQIGTAFAVTEEGDAHLNFKKTLASAETEKVVEFMSVAGLPARGIRTKFLDSYIRREGKLQANAKADPRRCTQGLNCLTSCGLRDGLSKAGQFCIDIQLAAAFRGEVDKGLFFRGKDQLPFGNAIRTVRETIQYLLTGSEPVATLGR” reads “not soluble”.
Then “EVQLQESGPSLVKPSQTLSLTCSVTGEPITSGFWDWIRKFPGNKLEFMGYIRYGGGTYYNPSLKSPISITRDTSKNHYYLQLNSVVTEDTATYYCARSRDYYGSSGFAFWGEGTLVTVSAAKTTPPSVYPLAPGCGDTTGSSVTLGCLVKGYFPESVTVTWNSGSLSSSVHTFPALLQSGLYTMSSSVTVPSSTWPSQTVTCSVAHPASSTTVDKKLE”, with “soluble”; and “MGSDKIHHHHHHMAAALDGIRVLDLSRVLAGPWASQALADLGAEVIKIERPGAGDDTRSWGPPFLKDEDGRETTDAAYFLAANRGKKSLTVDITKAEGQDLVRALAARSHVVIENFKLGGLAKYGLDWPSLRAVNPALVYCSITGFGQTGPYAPRAGYDAMIQAMSGLMSVTGEPDGVAGGGPMKVGVAVTDILTGLYAAFGILAALRHAEATGEGQHIDLALMDTAVACMANQAANALVGERVPGRLGTAHPNIVPYQAFATQDGHLMLAVGNDGQFARLCAIGQRPDLPLDPRFARNRDRVAHRAALLAEIIPMMASRSTDAWIAALESAGVPCGPINTLDRVFADPQVIARGLRVDGTHAEAGTVPMVRNPLLLSATPPTHTAGPPTLGQHTDGVLSDVLGLTAEDITTLRQKAIV”, with “not soluble”.
The result for “MGSDKIHHHHHHMLSKFWRPQAPQMIGVDIGSYEIKAILLGKTADGYKIQAHSCVPIKKGAVVDHDIRDSAAVIEALKQVKRGLPKSAKFAAVSVSGSAVMTKVIYMDSSLTEEEMEAQIEIEADNLIPYSLDEVSIDFETLKTNKTDPTKVDVLLSACRTENIDSRVDALDAIDIDAKVVDVEGYALGRSAELIMAQLPPGAEEKSVALVDIGANMTTFAVVERGETIFTREQAFGGELFTQAILSTYGMSYDEAENAKIKGELPRNYTFEVLSPFQTQLLQQVKRTLQIYATASGKEKVDYIVLCGGTAKLEGMEALLLNELGINTVVANPFLGCLHGDELIKSQLQPNVNKYMVACGLALRSYAQWRI” reads “not soluble”; that for “MEKLYEGKAKVLYREGPDTLRVYFKDEATAFNAQKRGVIPGKGVVNNKVSAALFRYLEAHGVKTHFLEEVSDREMRVRRVEILPLEVILRFRAAGSFARRYGLKEGTPLKMPLLEFSLKNDALGDPLICENAVLALGLTTEGELEGVKAATLRVGDLLKAFFAERGLELVDFKLEFGKVGGEILLADEISPDTMRLWDEKGEPLDKDRFRKDLGGVEEAYREVLRRVLG”, “soluble”; that for “MGNIKVTRDDWLNVAMDVLVSDGVEQVKVMNLAERMAVSRSSFYWYFKSRQDLLDALLAKWQATNTAGLIAQTELPAQTITGAVCNLFHCVVDPALFDTALDFAVRDWARRSGKVRRLLDLSDSRRLEALTAMFLRYDYSQIEAETRARVLYYMQIGYDLAQMNEPIDQRLSFVRHYLFVFTGVQARDEEVAAFSAFARGFWEGRRP”, “not soluble”.
Regarding “MMEKSTLLQIKRDIETCVGQKIQLKANKGRKKAFIREGIVENTYPSIFVVKFENDYDTVRRVSYSYTDILTKAVEITVCEDNRKIQVS”, the “soluble on expression in E. coli” value is on record as “soluble”.
As to “MGSDKIHHHHHHMKSTIYKALIGATLIIGLSSCVNNWLDVEPGDQVEADEAVTTSADLSSVRAGMYQIIKGTSDFKDYYAARMFYYGEVRGEDMQTEKSGSRSQLCYDMTYSTADNAPSIWQTPYIVIGRANRIIEAAESGKLTDKEEAADIIAQYAAEAKVARAMAHFDLVRVYGKTYTAPDAPNSLGIPVVTTVLGSDSKLIRNTVSEVYTQVIKDLNEAINSKALSESSTPGYINLWAAKALLSRVYLTQGDNQKSLDVAEDIIKNSPYKLWKNEEYVGAWSKISGVHSNEMLFEIAITGSTDWTDREGIAYLYNEDGYADIIATKKFLDLLNEDPNDVRLGVFLAPTTKDFKKLYGTNTVFLNKYPADGLSDLRYNNVPLVRLSEVYLNAAEAAAKLGNQNDKAVEYLDAIVKRANPNKTVKGTTVTVDRVLLERRKELIGEGHRFFDAMRNNETVIRYTSKEDQGWQQALKEEARSFNRDFYKTLLPIPQDEIDANPSMKDQQNTGY”, the “soluble on expression in E. coli” value is on record as “not soluble”.
“MAHHHHHHMNPHQVNPSDQIAELVVESPHFSFNCAHFIAFKGFRETLHGHNYNVSLKLRGYIQQDGYVIDFSILKEKLKRVCKQLDHHFILPMYSDVLNIQMLEDNFKIICEDKSEYSFPKRDCVQIPIKHSSTEEIGLYILNKIIEELGLPFLKARSVNYMEVTVSESPTQKATVHRNI”: the “soluble on expression in E. coli” value is on record as “not soluble”.
